Literature values, collected in PMC6002756.

How the values were obtained:
E-cadherin (X-dimer) ECD = E-cadherin (X-dimer) ECD (UniProt P12830)
E-cadherin ECD = E-cadherin ECD (UniProt P12830)

E-cadherin ECD, sequence (P12830 155-709): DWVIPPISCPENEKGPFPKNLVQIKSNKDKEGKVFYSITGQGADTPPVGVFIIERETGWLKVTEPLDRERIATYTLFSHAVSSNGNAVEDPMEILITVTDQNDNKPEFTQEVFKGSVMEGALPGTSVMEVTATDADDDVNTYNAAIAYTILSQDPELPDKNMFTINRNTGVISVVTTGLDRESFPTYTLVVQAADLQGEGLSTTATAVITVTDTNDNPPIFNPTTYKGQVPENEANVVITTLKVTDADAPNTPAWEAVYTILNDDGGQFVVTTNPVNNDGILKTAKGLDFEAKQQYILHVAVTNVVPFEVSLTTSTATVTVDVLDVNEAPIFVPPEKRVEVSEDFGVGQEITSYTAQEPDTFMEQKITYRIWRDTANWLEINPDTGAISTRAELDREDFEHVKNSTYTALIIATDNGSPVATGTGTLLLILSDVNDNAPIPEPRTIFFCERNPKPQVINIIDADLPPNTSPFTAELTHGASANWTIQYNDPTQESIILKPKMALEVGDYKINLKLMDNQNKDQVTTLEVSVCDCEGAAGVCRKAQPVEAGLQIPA
E-cadherin (X-dimer) ECD, sequence (P12830 155-709): as above

Substance: E-cadherin (X-dimer) ECD (from UniProt P12830)
- Kd (E-cadherin (X-dimer) ECD): 900 µM

Substance: E-cadherin ECD (from UniProt P12830)
- Kd (E-cadherin ECD): 100 µM
